From patent US20230129812A1 (ACCELERON PHARMA, published 2023)
Like-named read-outs stand apart in the source and are kept apart here.

Legend:
[1] = target: T1, activin A (UniProt P08476 311-426); experiment: SPR (Biacore); receptor-Fc captured by anti-Fc antibody, ligand injected
T1 construct: also called ActA
T1 sequence (looked up): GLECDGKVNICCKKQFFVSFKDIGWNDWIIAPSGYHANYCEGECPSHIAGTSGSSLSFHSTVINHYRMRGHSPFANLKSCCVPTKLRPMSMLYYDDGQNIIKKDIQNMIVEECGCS
Description: (§1) A Biacore™-based binding assay was used to compare ligand binding selectivity of the ALK4-Fc:ActRIIB-Fc heterodimeric complex described above with that of ActRIIB-Fc and ALK4-Fc homodimer complexes. The ALK4-Fc:ActRIeB-Fc heterodimer, […], and ALK4-Fc homodimer were independently captured onto the system using an anti-Fc antibody. Ligands were injected and allowed to flow over the captured receptor protein. Results are summarized in Table 13 below, in which ligand off-rates (kd) most indicative of effective polypeptides are denoted in bold.

[2] = target: T2, GDF11 (UniProt O95390 299-407); experiment: as above
T2 construct: also called BMP11
T2 sequence (looked up): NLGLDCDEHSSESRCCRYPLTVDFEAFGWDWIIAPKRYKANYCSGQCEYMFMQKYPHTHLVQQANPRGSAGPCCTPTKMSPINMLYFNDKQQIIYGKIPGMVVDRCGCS
Description: as §1

[3] = target: T3, activin B (UniProt P09529 293-407); experiment: as above
T3 sequence (looked up): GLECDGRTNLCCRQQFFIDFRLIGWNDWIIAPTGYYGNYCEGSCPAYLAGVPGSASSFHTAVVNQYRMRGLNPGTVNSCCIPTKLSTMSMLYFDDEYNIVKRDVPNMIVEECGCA
Description: as §1

[4] = target: T1, activin A; experiment: as above; remark: listed apart in the source
Description: (§2) A Biacore™-based binding assay was used to compare ligand binding selectivity of the ActRIIA-Fc:ALK4-Fc heterodimeric complex described above with that of ActRIIA-Fc and ALK4-Fc homodimeric complexes. The ActRIIA-Fc:ALK4-Fc heterodimer, ActRIIA-Fc homodimer, and ALK4-Fc homodimer were independently captured onto the system using an anti-Fc antibody. Ligands were injected and allowed to flow over the captured receptor protein. Results are summarized in Table 14 below, in which ligand off-rates (kd) most indicative of effective ligand traps are denoted in bold.

[5] = target: T2, GDF11; experiment: as above; remark: listed apart in the source
Description: as §2

[6] = target: T4, activin AB (UniProt P08476 311-426; P09529 293-407); experiment: as above
T4 sequence (looked up) 1: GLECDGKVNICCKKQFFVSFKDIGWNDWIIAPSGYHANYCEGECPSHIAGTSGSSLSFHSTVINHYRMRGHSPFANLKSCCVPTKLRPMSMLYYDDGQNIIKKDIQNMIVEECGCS
T4 sequence (looked up) 2: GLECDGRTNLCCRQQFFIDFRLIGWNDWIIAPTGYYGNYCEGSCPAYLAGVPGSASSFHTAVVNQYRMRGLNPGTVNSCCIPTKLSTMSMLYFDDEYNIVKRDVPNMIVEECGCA
Description: as §2

[7] = target: T5, activin AC (UniProt P08476 311-426; P55103 237-352); experiment: as above
T5 sequence (looked up) 1: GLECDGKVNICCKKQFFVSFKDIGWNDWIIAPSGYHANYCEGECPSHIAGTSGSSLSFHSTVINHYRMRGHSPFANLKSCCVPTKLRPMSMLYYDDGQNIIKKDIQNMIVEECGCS
T5 sequence (looked up) 2: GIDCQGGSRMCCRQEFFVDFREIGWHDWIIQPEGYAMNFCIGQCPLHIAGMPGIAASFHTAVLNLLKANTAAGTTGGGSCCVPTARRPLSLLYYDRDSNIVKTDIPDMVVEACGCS
Description: as §2

[8] = target: T6, BMP6 (UniProt P22004 375-513, limits assumed); experiment: as above
T6 sequence (looked up): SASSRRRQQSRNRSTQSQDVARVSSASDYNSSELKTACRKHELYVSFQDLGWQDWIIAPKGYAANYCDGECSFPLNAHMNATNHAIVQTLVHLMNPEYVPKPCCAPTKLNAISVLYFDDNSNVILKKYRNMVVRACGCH
Description: as §2

[9] = target: T7, BMP7 (UniProt P18075 293-431); experiment: as above
T7 sequence (looked up): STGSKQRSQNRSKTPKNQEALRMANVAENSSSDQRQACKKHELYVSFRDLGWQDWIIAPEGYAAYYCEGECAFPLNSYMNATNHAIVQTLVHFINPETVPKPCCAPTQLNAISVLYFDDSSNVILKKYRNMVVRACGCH
Description: as §2

[10] = target: T8, BMP10 (UniProt O95393 317-424); experiment: as above
T8 sequence (looked up): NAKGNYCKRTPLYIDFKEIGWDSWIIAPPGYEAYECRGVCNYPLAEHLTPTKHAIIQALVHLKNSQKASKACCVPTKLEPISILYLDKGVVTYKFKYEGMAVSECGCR
Description: as §2

[11] = target: T2, GDF11; experiment: SPR (Biacore); receptor-Fc captured by anti-Fc antibody, ligand injected; † Very low signal
Description: as §2

[12] = target: T2, GDF11; experiment: as above; remark: listed apart in the source
Description: as §2

Kd [1]: 20 nM | koff [1]: 0.012 s⁻¹ | kon [1]: 580000 M⁻¹ s⁻¹ | koff [2]: 0.0048 s⁻¹ | kon [2]: 5e+06 M⁻¹ s⁻¹ | binding result [3]: no binding | Kd [4]: 20 nM | koff [4]: 0.012 s⁻¹ | kon [4]: 580000 M⁻¹ s⁻¹ | koff [5]: 0.0048 s⁻¹ | kon [5]: 5e+06 M⁻¹ s⁻¹ | Kd [6]: 2 nM | koff [6]: 0.0036 s⁻¹ | kon [6]: 1.8e+06 M⁻¹ s⁻¹ | binding result [7]: no binding | binding result [8]: no binding | binding result [9]: no binding | binding result [10]: no binding | Kd [11]: 0.97 nM | Kd [12]: 0.97 nM
B1: ALK4-Fc homodimer (Fc fusion, not shown: a dimerising Fc or GST)
chain: SGPRGVQALLCACTSCLQANYTCETDGACMVSIFNLDGMEHHVRTCIPKVELVPAGKPFYCLSSEDLRNTHCCYTDYCNRIDLRVPSGHLKEPEHPSMWGPVE
